Experimental data from the supplement of paper PMC10567573.

B1: ZNF207 (parent)
chain: FQPQPVQPQQGYIPPMAQPGLPPV
B2: WDFY1 (parent)
chain: LLIPKEDGVITASEDRTIRVWLKR

Variants of: B1
Test: protein stability index of a GFP-peptide fusion (GPS, HEK-293T) (PSI 1-6); higher = more stable
Settings: c terminus: a fixed tail appended
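Further: lentivirally expressed fusions sorted by FACS into six bins by GFP to DsRed ratio, PSI derived from sequencing read proportions per bin multiplied by bin number.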

Protein stability index: each site, then its substitutions
G20: C 2.93, V 3.72, W 1.7, Q 3.46, M 2.75, E 3.23, L 3.15, R 3.33, D 2.89, K 2.27, S 3.24
P23: D 3.28, I 2.65, G 2.27, L 3.04, M 2.9, Y 2.42, N 2.69, C 2.91, R 3.02, T 2.89, H 2.77, S 3.19, K 2.95, V 3.13, Q 3.14, E 3.07, F 1.88, A 3.4, W 1.7
L21: R 3.38, E 4.13, G 3.24, K 3.48, D 4.12, V 2.73, F 2.66, C 3.64, W 2.26, M 3.68
P15: L 2.72, W 1.73, T 3.14, N 3.45, G 3.07, S 2.87, M 2.62, K 2.81, C 2.45, H 2.74, V 3.23, Q 3.09, R 2.97, Y 2.66, I 2.17, F 2.3, E 2.96, D 3.04, A 3.13
A17: S 3.86, E 3.42, H 3.12, Y 2.25, P 3.04, D 3.35, L 2.85, F 2.5, V 2.96, Q 3.39, W 1.93, I 3.17, T 3.22, R 3.15, M 3.4, K 3.04, G 2.98, C 3.27, N 3.59
P14: T 2.75, G 2.79, L 2.52, Y 2.65, A 2.96, D 3.37, H 2.75, W 1.98, C 2.61, E 2.86, F 2.93, M 2.88, K 2.83, R 2.81, S 3.08, N 2.5, I 2.63, Q 2.74, V 2.9
V24: R 3.38, F 2.35, K 2.92, L 2.44, C 2.95, H 2.71, D 3.9, I 3.26, W 1.8, E 3.75, Y 2.4, N 2.67, S 2.93, Q 3.33, M 2.8, G 3.1
I13: Q 3.59, H 3.54, L 3.52, M 2.99, W 2.56, N 3.17, V 3.44, G 3.29, S 3.58, R 3.16, K 2.85, Y 2.88, F 3.4
P19: H 3.19, A 3.32, G 3.12, L 2.7, F 2.38, S 3.19, C 3.1
M16: S 3.5, I 3.3, W 2.06, V 3.64, G 3.49, N 3.48, K 3.21, D 3.7, R 2.97, C 3.08, Y 2.82, F 2.43, E 3.54
Q18: W 2.03, R 3.37, M 2.7, L 2.91, C 2.37, S 2.95, K 2.88, N 3.11
P22: V 2.72, K 3.4, H 2.83, R 2.88, A 3.37, N 2.74, C 2.38, E 3.08, Y 2.29, S 2.13, L 2.99, M 2.4, D 3.06, W 1.85, F 2.54, I 2.68, Q 3.33, T 2.7, G 2.74

Variants of: B2
Test: as above
Settings: c terminus: a fixed tail appended

Protein stability index: each site, then its substitutions
D7: I 1.28, H 1.42, W 1.33, C 1.75, F 2.7, V 1.8, S 1.39, M 1.44
K5: Y 2.91, F 1.4, A 2.13, N 2.15, E 1.58, G 3.24, H 1.65, D 2.41
T11: F 2.4, C 2.7, R 3.1, G 1.98
P4: H 1.75, R 2.46, W 2.35, M 1.88, F 2.78, I 1.52
S13: A 1.56, Q 3.07, N 1.99, G 2.42, V 2.32, C 1.51
R16: E 2.81, S 1.7, A 1.92, Y 1.41, N 3.22, G 1.89, K 1.74, I 1.43
R24: N 2.34, M 1.53, D 3.09, A 1.84, Q 2.71, K 2.08, L 1.83, Y 2.07, E 2.48, V 1.69
W21: N 3.33, V 3.07, C 3.44, I 3.04
G8: C 2.23, R 2.3, Y 1.74, S 1.95, D 2.27, K 1.99, H 1.78, Q 1.58
L1: I 2.1, P 4.03, K 2.74, R 2.73, Q 2.94
L2: Y 1.82, H 1.68, S 2.78, E 3.8, R 1.93, A 2.88
T17: I 1.61, E 1.81, R 2.29, G 1.39, V 1.71, C 2.1, L 1.82, N 2.77, M 1.73, S 1.8, D 1.94
R19: Y 2.66, K 2.09, T 1.7, M 2.44
L22: V 2.17, N 2.77, T 2.54, E 3.61, R 3.11
E6: F 2.25, K 2.18, C 2.67, A 2.59, N 2.58, D 2.82, P 2.43, S 2.06, M 2.65, I 1.98, T 1.77
I10: C 1.94, T 2.47, G 2.76, Q 2.62, M 2.14, D 2.83, E 2.68, P 4.2, L 2.21
A12: N 2.56, K 2.19
E14: R 2.78, Q 2.14, P 2.62, F 2.37, K 1.93, A 1.71
I18: P 3.15, S 2.94, Y 2.04, C 2.07, Q 3.97, E 2.52, M 1.76
V20: E 1.73, W 1.72, R 1.64, D 2.52, C 2.39, T 2.95, K 2.41, I 2.64
K23: C 2.24, D 2.2, M 1.76, W 2.13, E 2.9, H 1.7
I3: C 2.24, E 3.36, K 3.17, Y 1.89, G 2.97, A 3.62, M 1.95
D15: K 1.41, T 1.19, M 1.55, G 2.09, E 1.66
V9: W 2.22, Y 1.02, G 2.4, M 2.21, C 1.65, E 2.6, K 1.69
